# According to PMC8000724, “Trans-Epithelial Transport, Metabolism, and Biological Activity Assessment of the Multi-Target Lupin Peptide [sequence] (P5) and Its Metabolite [sequence] (P5-Met)” (Nutrients, 2021):
# Columns and labels:
# [1] = target: T1, proprotein convertase subtilisin/kexin type-9 (PCSK9), His-tagged (UniProt Q8NBP7 31-692); experiment: ELISA; CircuLex in vitro PCSK9-LDLR binding assay kit; plate pre-coated with recombinant LDLR-AB domain; peptide (0.1-100 uM) in reaction buffer, then His-tagged PCSK9 added; 2 h at room temperature; detected with biotinylated anti-His-tag antibody, HRP-streptavidin and TMB, absorbance at 450 nm; conditions: both partners purified
# T1 construct: PCSK9, recombinant His-tagged protein of the kit; The functional rows use this molecule; also called His-tagged PCSK9
# T1 sequence (Q8NBP7 31-692): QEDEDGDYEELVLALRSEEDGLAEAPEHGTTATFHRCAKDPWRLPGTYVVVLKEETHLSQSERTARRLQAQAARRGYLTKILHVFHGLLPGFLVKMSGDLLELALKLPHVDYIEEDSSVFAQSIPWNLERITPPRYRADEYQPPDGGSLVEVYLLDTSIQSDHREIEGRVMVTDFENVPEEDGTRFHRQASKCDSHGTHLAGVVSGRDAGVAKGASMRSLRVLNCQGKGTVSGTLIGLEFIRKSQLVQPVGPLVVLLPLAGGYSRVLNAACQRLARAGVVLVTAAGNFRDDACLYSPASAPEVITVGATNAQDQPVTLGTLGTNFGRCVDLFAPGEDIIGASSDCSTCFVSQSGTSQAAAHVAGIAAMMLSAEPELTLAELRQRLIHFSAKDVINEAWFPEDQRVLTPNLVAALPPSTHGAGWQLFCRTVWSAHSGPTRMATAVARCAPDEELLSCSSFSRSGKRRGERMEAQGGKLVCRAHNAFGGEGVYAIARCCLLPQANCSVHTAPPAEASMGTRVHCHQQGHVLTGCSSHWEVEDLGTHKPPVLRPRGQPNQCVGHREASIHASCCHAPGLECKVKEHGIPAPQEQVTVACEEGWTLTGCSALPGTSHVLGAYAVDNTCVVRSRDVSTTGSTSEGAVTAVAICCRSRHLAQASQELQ
# [2] = target: 3-hydroxy-3-methylglutaryl coenzyme A reductase (HMGCoAR), catalytic domain; experiment: cell-based or functional assay
# 3-hydroxy-3-methylglutaryl coenzyme A reductase (HMGCoAR), catalytic domain, sequence (P04035 whole entry, the tested form may be a part): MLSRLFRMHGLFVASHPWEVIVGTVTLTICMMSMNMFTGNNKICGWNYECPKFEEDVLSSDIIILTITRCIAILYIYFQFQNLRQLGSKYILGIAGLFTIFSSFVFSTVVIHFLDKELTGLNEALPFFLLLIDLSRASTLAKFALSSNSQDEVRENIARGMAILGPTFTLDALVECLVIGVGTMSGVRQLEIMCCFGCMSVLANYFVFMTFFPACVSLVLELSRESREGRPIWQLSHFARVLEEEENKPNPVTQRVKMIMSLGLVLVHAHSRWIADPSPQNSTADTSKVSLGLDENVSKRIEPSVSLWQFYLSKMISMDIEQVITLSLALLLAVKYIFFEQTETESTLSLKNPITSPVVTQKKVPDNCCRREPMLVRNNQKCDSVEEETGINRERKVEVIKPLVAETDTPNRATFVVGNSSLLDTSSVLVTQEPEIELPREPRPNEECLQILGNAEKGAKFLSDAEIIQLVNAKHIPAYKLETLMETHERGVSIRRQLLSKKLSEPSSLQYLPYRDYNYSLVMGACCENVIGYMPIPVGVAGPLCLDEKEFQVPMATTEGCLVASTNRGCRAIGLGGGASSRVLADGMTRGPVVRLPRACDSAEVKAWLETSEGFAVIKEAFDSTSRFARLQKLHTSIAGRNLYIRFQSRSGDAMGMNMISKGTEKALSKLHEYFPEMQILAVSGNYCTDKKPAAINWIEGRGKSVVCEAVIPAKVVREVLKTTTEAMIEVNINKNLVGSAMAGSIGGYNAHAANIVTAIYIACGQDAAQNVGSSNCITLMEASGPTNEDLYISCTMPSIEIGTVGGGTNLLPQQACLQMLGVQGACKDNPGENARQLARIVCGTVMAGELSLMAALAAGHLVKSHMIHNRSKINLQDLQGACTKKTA
IC50 [1] [µM],"in vitro HMGCoAR activity (NADPH oxidation, absorbance at 340 nm, 37 °C), peptide 10-500 µM; IC50 [2] [µM]",Binder
1.3,147,"LILPKHSDAD (peptide from the peptic hydrolysate of lupin protein; also called parent peptide; source: synthetic peptide (GeneScript, >95% purity)) [lupin peptide P5 (LILPKHSDAD)]"
1.7,175,"LPKHSDAD (source: synthetic peptide (GeneScript, >95% purity)) [P5-met (LPKHSDAD), metabolite of lupin peptide P5]"
